For this assay, the target named is E. coli bacteria. Briefly: binding to whole E. coli cells in presence of purified E. coli B LPS. Particulars: read off a plot.

In the case of “Phage T4 LTF needle (gp37; amino acids 799–1026), wild type (from UniProt P03744) G938A”, the response (LPS 0.32 ng, parent: est. 32) amounted to 90 % Binding; the response (LPS 1.6 ng, parent: est. 47) came out at 85 % Binding; the response (LPS 8 ng, parent: est. 62) is 92 % Binding; the response (LPS 40 ng, parent: est. 87) is 92 % Binding; the response (LPS 200 ng, parent: est. 130) stood at 100 % Binding; the response (LPS 1000 ng, parent: est. 190) is 110 % Binding. For the same substance, for the setting “LPS 5000 ng, parent: est. 230”, the response turned out to be 120 % Binding.

Take “Phage T4 LTF needle (gp37; amino acids 799–1026), wild type (from UniProt P03744) N937A”: the response by setting is: (LPS 0.32 ng, parent: est. 32) 90 % Binding; (LPS 1.6 ng, parent: est. 47) 92 % Binding; (LPS 8 ng, parent: est. 62) 94 % Binding; (LPS 40 ng, parent: est. 87) 98 % Binding; (LPS 200 ng, parent: est. 130) 110 % Binding; (LPS 1000 ng, parent: est. 190) 140 % Binding. Further, the response (LPS 5000 ng, parent: est. 230) came to 150 % Binding.
